Source: patent US20240100133A1, “ENZYMATICALLY INACTIVE GRANZYME A AND USES THEREFORE” (Saint Louis University, priority 2022, published 2024)

How the values were obtained:
PDIA1 = PDIA1 (Homo sapiens, UniProt P07237); assay: STED microscopy colocalization of GzmA with PDIA1; assay type: cell-based; set-up: endogenous in cells; host or cells: primary human monocytes infected with mycobacteria; conditions: STED images, infected and treated human monocytes
Protocol: (§1) Confocal microscopy and Stimulation Emission Depletion (STED) experiments. For confocal and STED microscopy experiments, cells were incubated on coverslips pre-treated with Cell-Tak (Corning #354240). At the time of fixation, cells were washed twice with 1×RT PBS, and then fixed in 4% paraformaldehyde for 15 min at 37° C. Slides were washed thrice for 5 min at RT with 1×PBS, and then blocked with 5% donkey serum (Cat. #017-000-121, Jackson ImmunoResearch, West Grove, PA) with 0.25% Tween-20 (Cat. #P9416, Sigma, St. Louis, MO) and True Stain Fc blocker (added only during blocking step) (Cat. #426101, Biolegend, San Diego, CA). Cells were then incubated overnight at 4° C. with primary antibody anti-GzmA (Cat. #MAB29051, R&D, Minneapolis, MN) at 12.5 μg/mL in blocking buffer, anti-PDIA1 (Cat. #MAB4236, R&D, Minneapolis, MN) at 12.5 μg/mL in blocking buffer, anti-LAMP1 at 12.5 ug/ml (Cat. #MAB4800, R&D, Minneapolis, MN), or anti-ATPSH (Cat. #ab110275, Abcam, Cambridge, UK) at 5 μg/mL in blocking buffer. To remove unbound antibody, cells were washed four times with 1×PBS at RT, and then incubated in the dark for 2 h with secondary antibody conjugated with Alexa Fluor 594 (Cat. #715-545-150, Jackson Immunoresearch, West Grove, PA) at 1:100 or Atto 647N (Cat. #ASR3248, Abcepta, San Diego, Ca) at 1:100. […]

[1] = tested on: Protein Disulfide Isomerase A1 (PDIA1); conditions: human monocytes infected and treated with GzmA; cited from earlier work
[2] = tested on: BCG-GFP in human monocytes; assay: BCG-GFP protection experiments and kinetics by flow cytometry
Protocol: Following treatment with GzmA and infection with mycobacteria, monocytes were first blocked with True Stain Fc blocker (Cat. #426101, Biolegend, San Diego, CA), and then permeabilized using permeabilization solution (Cat. #554715, BD Biosciences, San Diego, CA). Next, cells were incubated with anti-GzmA antibody conjugated with PE (Cat. #558904, BD Biosciences, San Diego, CA). A flow cytometer was then used to analyze BCG-GFP and GzmA-PE positive cells. FlowJo software was used for analysis.

[3] = tested on: LAMP1 (phagolysosome fusion); assay: Confocal microscopy colocalization of BCG-GFP and LAMP1; assay type: cell-based, human; conditions: compared with untreated controls
Protocol: as §1

Rab11-FIP1 = assay: Quantitative shotgun proteomics of treated and infected monocytes; assay type: cell-based, human; conditions: 200 nM GzmA, infected cells (MOI=3), overnight
Protocol: Quantitative shotgun proteomics. 1.5e5 human monocytes were either treated or not with 200 nM GzmA, and infected or not with mycobacteria (MOI=3) overnight. After incubation, cells were then washed thrice with PBS, and the pellet lysed using lysis buffer from EasyPep Mini MS Sample Prep Kit (Cat #A40006, Thermo-Fisher, Waltham, MA) supplemented with 1:100 HALT phosphatase inhibitor (Cat #78420, Thermo-Fisher, Waltham, MA). Lysis, reduction/alkylation, protein digestion, and peptide clean-up were performed according to EasyPep recommendations. […] After peptide cleanup, samples were dried using a vacuum centrifuge, and then resuspended in 0.1% formic acid in water for LC-MS analysis. The samples were analyzed on a Q-Exactive orbitrap MS/MS equipped with a nanospray emitter (Thermo Fisher Scientific, Waltham, MA). Nanospray parameters in positive ion mode were as follows: spray voltage, 2.0 KV; capillary temperature, 320° C.; S-lens RF level, 55. […] The MS/MS spectra were analyzed using Sequest HT and MSPepSearch, both integrated in Proteome Discoverer 2.4.1.15 (Thermo Scientific, MA). […] Finally, the results were subjected to statistical analysis using percolator node where the False discovery rate (FDR) was calculated using a decoy database search and only high confidence peptide identifications with FDR 0.01 were included. […]

PDIA1, sequence (P07237 18-508): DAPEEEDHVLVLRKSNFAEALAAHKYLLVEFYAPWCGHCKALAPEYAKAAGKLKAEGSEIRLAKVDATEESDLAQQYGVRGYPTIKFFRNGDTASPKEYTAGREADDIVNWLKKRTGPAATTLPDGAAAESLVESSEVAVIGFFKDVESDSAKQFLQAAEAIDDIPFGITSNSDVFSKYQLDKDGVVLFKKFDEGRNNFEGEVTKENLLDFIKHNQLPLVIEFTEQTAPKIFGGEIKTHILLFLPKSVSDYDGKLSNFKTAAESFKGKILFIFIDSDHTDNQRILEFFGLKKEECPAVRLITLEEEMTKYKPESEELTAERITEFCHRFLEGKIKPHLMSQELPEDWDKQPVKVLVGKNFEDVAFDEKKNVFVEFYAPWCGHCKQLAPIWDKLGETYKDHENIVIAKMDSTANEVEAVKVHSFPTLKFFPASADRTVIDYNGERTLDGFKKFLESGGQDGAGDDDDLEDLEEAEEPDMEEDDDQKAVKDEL

B1: GzmA-WT: recombinant wild-type human Granzyme A, homodimeric serine protease, purified from HEK293T supernatants (protein)
chain: IIGGNEVTPHSRPYMVLLSLDRKTICAGALIAKDWVLTAAHCNLNKRSQVILGAHSITREEPTKQIMLVKKEFPYPCYDPATREGDLKLLQLMEKAKINKYVTILHLPKKGDDVKPGTMCQVAGWGRTHNSASWSDTLREVNITIIDRKVCNDRNHYNFNPVIGMNMVCAGSLRGGRDSCNGDSGSPLLCEGVFRGVTSFGLENKCGDPRGPGVYILLSKKHLNWIIMTIKGAV
modifications: left off: small tags and cut ends
notes: recombinant wild-type human Granzyme A, homodimeric serine protease, purified from HEK293T supernatants
degree of co-localization between GzmA and PDIA1 (PDIA1): 75% | PDIA1 upregulation compared to control [1]: 90% | uptake and persistence of bacteria in treated cells with detectable GzmA ([2]; GzmA detected in treated monocytes): least uptake and persistence of bacteria | mycobacterial growth in treated cells without sufficient internalization of protein (GzmA-) ([2]; GzmA- cells, over 18 h): reduced mycobacterial growth over time | reduction in mycobacterial growth AUC ([2]; cells treated and staining positive for GzmA, over 18 h): 78% | colocalization between LAMP1 and BCG-GFP [3]: greater degree of colocalization | Rab11-FIP1 protein level (Rab11-FIP1): upregulated
